Assay results taken from paper PMC7136269, “CXXC5 as an unmethylated CpG dinucleotide binding protein contributes to estrogen-mediated cellular proliferation”.

T1: FL-CXXC5 (human, UniProt Q7LFL8 1-322)
T1 sequence: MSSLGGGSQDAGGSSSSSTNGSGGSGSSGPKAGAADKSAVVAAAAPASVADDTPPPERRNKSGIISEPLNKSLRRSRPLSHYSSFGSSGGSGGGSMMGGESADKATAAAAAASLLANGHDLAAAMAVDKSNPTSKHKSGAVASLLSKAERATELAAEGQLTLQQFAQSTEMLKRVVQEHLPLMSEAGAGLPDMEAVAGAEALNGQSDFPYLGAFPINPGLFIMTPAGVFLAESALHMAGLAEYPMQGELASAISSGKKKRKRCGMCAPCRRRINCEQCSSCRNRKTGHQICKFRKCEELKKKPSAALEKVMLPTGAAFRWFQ

T2: CXXC-D (CXXC domain of CXXC5) (human, UniProt Q7LFL8 250-309)
T2 sequence: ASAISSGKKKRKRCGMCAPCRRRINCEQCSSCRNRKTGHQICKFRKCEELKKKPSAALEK

B1: AT DNA (dsDNA)
DNA 1: GTGATACATGATCAGT
DNA 2: ACTGATCATGTATCAC
B2: mCG DNA (dsDNA)
DNA 1: GTGATACCGGATCAGT
DNA 2: ACTGATCCGGTATCAC
modifications: 5-methyl-C at position 8 (GTGATACmCGGATCAGT); lower strand presumably also methylated at its central CpG
B3: CG DNA, distinct flanks (dsDNA)
DNA 1: GAGAGACCGGTCTCTC
DNA 2: GAGAGACCGGTCTCTC
B4: CG DNA (dsDNA)
DNA 1: GTGATACCGGATCAGT
DNA 2: ACTGATCCGGTATCAC
B5: mCG DNA, distinct flanks (dsDNA)
DNA 1: GAGAGACCGGTCTCTC
DNA 2: GAGAGACCGGTCTCTC
modifications: 5-methyl-C at position 8 (central mCG; self-complementary, so both strands)
B6: AT DNA, distinct flanks (dsDNA)
DNA 1: GAGAGACATGTCTCTC
DNA 2: GAGAGACATGTCTCTC

Assays:
FL-CXXC5 [1] = target: T1, FL-CXXC5; test: ITC; ITC: 10 uM protein, 300 uM DNA, 25 C, VP-ITC, one-site fit; DNA annealed in 20 mM Tris pH 7.5, 150 mM NaCl; protein eluted in 20 mM Tris pH 7.5, 150 mM NaCl, 1; conditions: protein: recombinant, tags: 6xHis removed by TEV (pET28a-MHL), blunt
FL-CXXC5 [2] = target: T1, FL-CXXC5; test: ITC; similar affinity to N1; ITC: 10 uM protein, 300 uM DNA, 25 C, VP-ITC, one-site fit; DNA annealed in 20 mM Tris pH 7.5, 150 mM NaCl; protein eluted in 20 mM Tris pH 7.5, 150 mM NaCl, 1; conditions: protein: recombinant; tags: 6xHis removed by TEV (pET28a-MHL); blunt; self-complementary
[3] = target: T2, CXXC-D (CXXC domain of CXXC5); test: ITC; ITC: 10 uM protein, 300 uM DNA, 25 C, VP-ITC, one-site fit; DNA annealed in 20 mM Tris pH 7.5, 150 mM NaCl; protein eluted in 20 mM Tris pH 7.5, 150 mM NaCl, 1; conditions: protein: recombinant; tags: 6xHis removed by TEV (pET28a-MHL); blunt

Binder | binding result (FL-CXXC5 [1]) | binding result (FL-CXXC5 [1]; self-complementary) | further results
B1 | no binding | – | –
B2 | no binding | – | –
B3 | – | – | binding result (FL-CXXC5 [2]): binds
B4 | binds | – | binding result [3]: binds
B5 | – | no binding | –
B6 | – | no binding | –
